This assay addresses human EpCAM immobilized with paraformaldehyde (on PFA-treated MCF-7 or PC-3 cells) (human) (UniProt P16422). Description: liquid-phase ELISA on PC-3 cells in suspension, PFA-treated against untreated.

Experimental findings from patent publication US20140141454A1 are described below.

Chain of UniProt P16422 (P16422 24-314 limits assumed): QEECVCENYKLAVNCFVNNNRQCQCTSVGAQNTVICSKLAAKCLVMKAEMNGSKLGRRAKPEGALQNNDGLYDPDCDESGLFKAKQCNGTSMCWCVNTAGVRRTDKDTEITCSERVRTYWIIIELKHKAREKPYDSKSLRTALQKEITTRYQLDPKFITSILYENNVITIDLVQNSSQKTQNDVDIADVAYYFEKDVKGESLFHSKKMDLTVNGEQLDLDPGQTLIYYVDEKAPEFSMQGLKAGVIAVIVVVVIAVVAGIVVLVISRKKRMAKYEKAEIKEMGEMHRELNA

The substance HEA-125 anti-EpCAM monoclonal antibody came in with a fold change of ELISA signal after 4% PFA treatment of under 1.5 fold.
